Source: patent US20210395344A1 (TWIST BIOSCIENCE, published 2021)
Where a chain is given by its changes, count along the chain named.

B1: 1-23 (antibody, V domains shown)
VH: EVQLLESGGGLVQPGGSLRLSCAASGFTFSSYAISWVRQAPGKGLEWVSIISGSGGSTYYADSVKGRFTISRDNSKNTLYLQMNSLRAEDTAVYYCAREGYRDYLWYFDLWGQGTLVTVSS
VL: QSALTQPASVSGSPGQSITISCTGTSNDVGSYNLVSWYQQHPGKAPKLMIYEGNKRPSGVSNRFSGSKSGNTASLTISGLQAEDEADYYCCSYAGSYTVFGGGTKLTVL
B2: 1-51 (antibody, V domains shown)
VH: B1 VH with I34M, I50V
VL: B1 VL with N27S, N33D, Y97S, T98V
B3: 1-2 (antibody, V domains shown)
VH: EVQLLESGGGLVQPGGSLRLSCAASGFTFSSQAMSWVRQAPGKGLEWVSAISGSGGGTYYADSVKGRFTISRDNSKNTLYLQMNSLRAEDTAVYYCAKDRRFGEFDPWGQGTLVTVSS
VL: QSALTQPASVSGSPGQSITISCTGTSSGVGSYNLVSWYQQHPGKAPKLMIYEGIKRPSGVSNRFSGSKSGNTASLTISGLQAEDEADYYCCSYAGSSSFVVFGGGTKLTVL
notes: also called variant 1-2
B4: 1-31 (antibody, V domains shown)
VH: EVQLLESGGGLVQPGGSLRLSCAASGFTFSSYAMNWVRQAPGKGLEWVSAISGSGGSTFYADSVKGRFTISRDNSKNTLYLQMNSLRAEDTAVYYCTRPPYGDYGDYWGQGTLVTVSS
VL: B3 VL with G28D, S31K, I54S, K55Q, S97R, S98T, F99P
notes: also called variant 1-31
B5: 1-27 (antibody, V domains shown)
VH: EVQLLESGGGLVQPGGSLRLSCAASGFTFSSYAMTWVRQAPGKGLEWVSAISGSGGGTYYADSVKGRFTISRDNSKNTLYLQMNSLRAEDTAVYYCASSSSWQFDYWGQGTLVTVSS
VL: B3 VL with G28Y, S31H, I54S, K55R, S97Y, S98T, F99H, V100Y
notes: also called variant 1-27
B6: 1-3 (antibody, V domains shown)
VH: B3 VH
VL: B3 VL with T25I, G28D, I54T
notes: also called variant 1-3
B7: 1-4 (antibody, V domains shown)
VH: B3 VH
VL: B3 VL with G28D, S31T, I54S, K55Q
notes: also called variant 1-4
B8: 1-28 (antibody, V domains shown)
VH: B5 VH with A33G, T35S
VL: B3 VL with I54S, K55Q, S98T, F99H, V100Y
notes: also called variant 1-28
B9: 1-30 (antibody, V domains shown)
VH: B4 VH with N35T
VL: B3 VL with S27R, G28D, I54T, S97R, S98T, F99P
notes: also called variant 1-30
B10: 1-5 (antibody, V domains shown)
VH: B3 VH
VL: B3 VL with G53A, I54S, S97Y, S98T, V100A
notes: also called variant 1-5
B11: 1-29 (antibody, V domains shown)
VH: EVQLLESGGGLVQPGGSLRLSCAASGFTFSSYAMYWVRQAPGKGLEWVSAISGSAGSTYYADSVKGRFTISRDNSKNTLYLQMNSLRAEDTAVYYCARDTNDFWSGYSIFDPWGQGTLVTVSS
VL: QSALTQPASVSGSPGQSITISCTGTSSDIGSYNLVSWYQQHPGKAPKLMIYEGTKRPSGVSNRFSGSKSGNTASLTISGLQAEDEADYYCCSYAGSRTYVFGGGTKLTVL
notes: also called variant 1-29
B12: 1-32 (antibody, V domains shown)
VH: B4 VH with N35Y
VL: QSALTQPASVSGSPGQSITISCTGTSSDVGGYNLVSWYQQHPGKAPKLMIYEGNKRPSGVSNRFSGSKSGNTASLTISGLQAEDEADYYCCSYAGSSTFPVVFGGGTKLTVL
notes: also called variant 1-32
B13: 1-35 (antibody, V domains shown)
VH: EVQLLESGGGLVQPGGSLRLSCAASGFTFSNYAMSWVRQAPGKGLEWVSDISGSGGSTYYADSVKGRFTISRDNSKNTLYLQMNSLRAEDTAVYYCVKGTIPIFGVIRSAFDYWGQGTLVTVSS
VL: B3 VL with G28D, N33S, I54T, S97Y, F99Y
notes: also called variant 1-35
B14: 1-20 (antibody, V domains shown)
VH: EVQLLESGGGLVQPGGSLRLSCAASGITFSSYAMSWVRQAPGKGLEWVSGISGSGGSTYYADSVKGRFTISRDNSKNTLYLQMNSLRAEDTAVYYCANHGSGTIFGVVIAKYYFDYWGQGTLVTVSS
VL: B3 VL with G28D, S31H, I54T
notes: also called variant 1-20
B15: 1-49 (antibody, V domains shown)
VH: EVQLLESGGGLVQPGGSLRLSCAASGFTFSSYAMYWVRQAPGKGLEWVSAISGSAGSTYYADSVKGRFTISRDNSKNTLYLQMNSLRAEDTAVYYCARDTNDFWGQGTLVTVSS
VL: B11 VL
notes: also called variant 1-49
B16: 1-48 (antibody, V domains shown)
VH: B11 VH with Y32H, R98H, N101K, S108C
VL: B11 VL
notes: also called variant 1-48
B17: 1-12 (antibody, V domains shown)
VH: B14 VH with N98K
VL: B3 VL with G28D, S31H, I54T
notes: also called variant 1-12

Molecular target: T1, SARS-CoV-2 Spike Glycoprotein S1 (subunit 1) (SARS-CoV-2, UniProt P0DTC2 16-685)
T1 construct: also called S1 Monomer; SARS-CoV-2 S1
Assay: screening phage ELISA, mean

| Binder | ELISA (Avg) |
| --- | --- |
| B1 | 23.1 |
| B2 | 7.1 |

Molecular target: T1, SARS-CoV-2 Spike Glycoprotein S1 …
Assay: screening phage ELISA, mean
Remark: another data set of the same source

| Binder | ELISA (Avg) |
| --- | --- |
| B1 | 23.1 |
| B2 | 7.1 |

Molecular target: T2, S1-Fc (SARS-CoV-2, UniProt P0DTC2 16-685)
Assay: phage ELISA

| Binder | ELISA fold over background |
| --- | --- |
| B3 | 1.7 fold over background |
| B4 | 15.7 fold over background |
| B5 | 1.3 fold over background |
| B6 | 1.5 fold over background |
| B7 | 0.9 fold over background |
| B8 | 1.1 fold over background |
| B9 | 5.6 fold over background |
| B10 | 1.2 fold over background |
| B11 | 1 fold over background |
| B12 | 4 fold over background |

Molecular target: T3, COVID S1 RBM Fc fusion (Antigen 2) (SARS-CoV-2, UniProt P0DTC2 437-508)
T3 construct: domain: RBM
Assay: phage ELISA

| Binder | ELISA fold over background |
| --- | --- |
| B3 | 1.7 fold over background |
| B4 | 1.2 fold over background |
| B5 | 1.6 fold over background |
| B13 | 1.6 fold over background |
| B6 | 1.5 fold over background |
| B7 | 1.1 fold over background |
| B14 | 0.8 fold over background |
| B8 | 1.2 fold over background |
| B9 | 1.4 fold over background |
| B10 | 1.4 fold over background |
| B11 | 0.9 fold over background |
| B15 | 0.8 fold over background |
| B16 | 0.8 fold over background |
| B12 | 1.1 fold over background |

Molecular target: T1, SARS-CoV-2 Spike Glycoprotein S1 …
Assay: ELISA binding titration

| Binder | EC50 |
| --- | --- |
| B2 | 98.2 nM |

Molecular target: T2, S1-Fc
Assay: phage ELISA
Remark: another data set of the same source

| Binder | ELISA fold over background |
| --- | --- |
| B3 | 1.7 fold over background |
| B4 | 15.7 fold over background |
| B5 | 1.3 fold over background |
| B6 | 1.5 fold over background |
| B7 | 0.9 fold over background |
| B8 | 1.1 fold over background |
| B9 | 5.6 fold over background |
| B10 | 1.2 fold over background |
| B11 | 1 fold over background |
| B12 | 4 fold over background |

Molecular target: T3, COVID S1 RBM Fc fusion (Antigen 2)
Assay: phage ELISA
Remark: another data set of the same source

| Binder | ELISA fold over background |
| --- | --- |
| B3 | 1.7 fold over background |
| B4 | 1.2 fold over background |
| B5 | 1.6 fold over background |
| B13 | 1.6 fold over background |
| B6 | 1.5 fold over background |
| B7 | 1.1 fold over background |
| B14 | 0.8 fold over background |
| B8 | 1.2 fold over background |
| B9 | 1.4 fold over background |
| B10 | 1.4 fold over background |
| B11 | 0.9 fold over background |
| B15 | 0.8 fold over background |
| B16 | 0.8 fold over background |
| B12 | 1.1 fold over background |

Molecular target: T4, SARS-CoV-2 S1 (antigen of the Carterra SPR kinetics) (SARS-CoV-2, UniProt P0DTC2 16-685)
Assay: Carterra SPR

| Binder | koff | kon |
| --- | --- | --- |
| B3 | 0.0272 s⁻¹ | 1580 M⁻¹ s⁻¹ |
| B4 | 0.000762 s⁻¹ | 20500 M⁻¹ s⁻¹ |
| B5 | 0.00285 s⁻¹ | 227000 M⁻¹ s⁻¹ |
| B6 | 0.304 s⁻¹ | 1.42e+06 M⁻¹ s⁻¹ |
| B7 | 0.124 s⁻¹ | 42000 M⁻¹ s⁻¹ |
| B8 | 9.05 s⁻¹ | 1.23e+08 M⁻¹ s⁻¹ |
| B9 | 0.00164 s⁻¹ | 43900 M⁻¹ s⁻¹ |
| B10 | 0.054 s⁻¹ | 2150 M⁻¹ s⁻¹ |
| B11 | 0.00197 s⁻¹ | 535 M⁻¹ s⁻¹ |
| B12 | 0.317 s⁻¹ | 5.49e+06 M⁻¹ s⁻¹ |

Molecular target: T4, SARS-CoV-2 S1 (antigen of the Carterra …)
Assay: Carterra SPR
Remark: another data set of the same source

| Binder | Kd | koff | kon |
| --- | --- | --- | --- |
| B3 | 17200 nM | 0.0272 s⁻¹ | 1580 M⁻¹ s⁻¹ |
| B17 | 372 nM | – | – |
| B4 | 37.2 nM | 0.000762 s⁻¹ | 20500 M⁻¹ s⁻¹ |
| B5 | 12.5 nM | 0.00285 s⁻¹ | 227000 M⁻¹ s⁻¹ |
| B6 | 215 nM | 0.304 s⁻¹ | 1.42e+06 M⁻¹ s⁻¹ |
| B7 | 2950 nM | 0.124 s⁻¹ | 42000 M⁻¹ s⁻¹ |
| B8 | 73.5 nM | 9.05 s⁻¹ | 1.23e+08 M⁻¹ s⁻¹ |
| B9 | 37.2 nM | 0.00164 s⁻¹ | 43900 M⁻¹ s⁻¹ |
| B10 | 25200 nM | 0.054 s⁻¹ | 2150 M⁻¹ s⁻¹ |
| B11 | 3680 nM | 0.00197 s⁻¹ | 535 M⁻¹ s⁻¹ |
| B12 | 57.8 nM | 0.317 s⁻¹ | 5.49e+06 M⁻¹ s⁻¹ |
